Data from the supplement of paper PMC9732359.
± gives the uncertainty stated by the source.

Experiment: protein stability index of a GFP-peptide fusion (yeast GPS) (PSI 1-4); higher = more stable; sorted into four equal gates, so the index is relative within each strain
Settings: san1∆
Outline: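 Plasmids isolated from each sorting gate were PCR-amplified and Illumina-sequenced, and barcodes assigned the reads to strains. The gates, four of equal size, were set by GFP/Cherry fluorescence ratio on mid-log cultures in leucine-free medium. These cultures were yeast carrying a pooled library of tiled 17-residue yeast protein peptides fused downstream of GFP on a plasmid that also expresses Cherry. The protein stability index is the sum of every gate's read frequency times its gate number.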

Sequence	protein stability index
AIDHLKAELEKQKSWVP [YIL149C/MLP2]	2.98 ± 0.11
AIKKSSMKMELLKKELL [SMC2]	2.78 ± 0.2
AILLIINLTQTYGISVV [NUT1]	1.7 ± 0.081
AILRQQQQMANNNGNPG [GAL11]	2.7 ± 0.12
AIPNSIIKRSNGQSLSP [YMR153W/NUP53]	2.71 ± 0.061
AIQKKDNKDKEGNAGGD [YOR098C/NUP1]	3.25 ± 0.1
AIQMVDPASFYLFDEID [SMC3]	2.66 ± 0.067
AISKKNKSLKYVIHGIE [LIN1]	2.11 ± 0.084
AIVFEEIKNWISDIPYV [YMR129W/POM152]	1.36 ± 0.075
AKAPSGLDQSRIPFSER [FAS1]	2.12 ± 0.25
AKFFLNVSDEQLSNWQK [ITC1]	3.18 ± 0.063
AKFRLILIESRIHRLAR [RPS13]	1.7 ± 0.18
AKIISKAPEQFIENFLT [YML103C/NUP188]	2.54 ± 0.2
AKKRRPAAKGKNLSFKR [RRP6]	2.67 ± 0.095
AKNIISNVLDGNKNQFE [LRP1]	2.92 ± 0.045
AKSNEDKQDGTAKPAFS [YJL041W/NSP1]	3.29 ± 0.17
AKTLTYPEVVTPYNIDR [RPO21]	1.94 ± 0.073
ALDTNGTSATTETLTSK [SIR4]	2.9 ± 0.065
ALEDEERDEILTLTDSQ [BRR2]	3.23 ± 0.088
ALIFIFFAYFIGWCKED [YJL039C/NUP192]	2.03 ± 0.093
ALLRENQDSVKTYALES [RPN2]	2.56 ± 0.12
ALLRVTKSKNKTLIGLQ [POP4]	2.27 ± 0.052
ALLTKRLYPHWDHPVIA [CSN12]	1.7 ± 0.17
ALMKTLIKFVDLSRNGR [NUT1]	2.26 ± 0.11
ALPSTHKVTQKKDIKIG [SIR4]	2.56 ± 0.07
ALQILNSGIIPGNRNAD [FAS2]	2.72 ± 0.1

Sequence	protein stability index
ALREMRKSDQQDVLKGS [POP1]	3.43 ± 0.14
ALSIADDASSAELLGRV [RPC53]	3.21 ± 0.18
ALTDFERFQVMVLRKQK [RPL14A]	1.62 ± 0.12
ALVFAALEHLKNLSLLA [SRP68]	3.07 ± 0.065
ALVYSYIEASGREGIWS [RPC34]	2.28 ± 0.17
AMLNLINDNNTRPYILE [YCG1]	3.08 ± 0.11
AMSETLSKVSLLTPDIG [PRE8]	3.04 ± 0.13
AMVEKYAPDVVRSLENL [RRP42]	2.65 ± 0.052
ANCQRQLTEFWTELCQR [NNF1]	3 ± 0.075
ANKTNLIESLNTIRQNV [YML103C/NUP188]	1.73 ± 0.12
ANLLPARQFGYVILTTS [RPS22A]	1.2 ± 0.094
ANLMLVMLRLLLVVIFK [SRB4]	1.24 ± 0.088
ANNNMNDELVELLANKC [GRR1]	2.78 ± 0.059
ANQSATSTPPPPPAPHN [SNF5]	2.82 ± 0.034
ANVPSTATTGKRKPAKS [RPN4]	2.64 ± 0.05
APAVELHGNAKKAAEEA [FAS2]	3.1 ± 0.12
APDGSASISLPNHIPSV [SWP82]	2.77 ± 0.097
APKIHILDPSTEYCVGD [YMR129W/POM152]	2.97 ± 0.087
APKWYPSEDVAALKKTR [RPL6A]	2.75 ± 0.049
APPQTRKFQPPPGFKRK [SMB1]	3.17 ± 0.084
APSDFSENQRQIFCVFS [GRR1]	2.76 ± 0.064
APSGIRMHLAPASKQGY [SSN2]	2.22 ± 0.13
APTLSQTYINQELGFCE [SSN2]	1.95 ± 0.22
APYRKQIISNAHNKPSL [YAR002W/NUP60]	2 ± 0.1
AQAQAQAQAQAQAAQAA [GAL11]	3.258 ± 0.023
AQFQYTLDRNTAAETFK [RPL8A]	2.64 ± 0.27

Sequence	protein stability index
AQGKEFGVTKARWPAKS [RPL17A]	3.26 ± 0.066
AQGVAVQLKRQPAQPRE [RPL21A]	1.61 ± 0.084
AQQAQQAQQAQQAQARL [SNF2]	3.13 ± 0.035
AQQDSTNVRLYSLLLAS [ECM29]	2.39 ± 0.047
AQQKLKQNPGLMQNMMN [SRP54]	2.79 ± 0.044
AQWERSKLSQEFLYPHL [SNF12]	2.83 ± 0.071
ARDAPTKISTLAVKVHG [QCR2]	1.38 ± 0.14
ARIIAAIPNPEDVVAIS [RPS0A]	2.34 ± 0.091
ARKETYSSYIYKVLKQT [HTB1]	1.97 ± 0.072
ARKSAPSTGGVKKPHRY [HHT1]	2.03 ± 0.075
ARLDGHDFLFNTIIRDG [RPN14]	3.32 ± 0.056
ARRRQPTDQNNQSNLNG [SNF2]	3.11 ± 0.07
ARVTGGMKVKADRDESS [RPS14B]	3.12 ± 0.05
ARYNWICDPVHKHREAR [RPL15A]	2.98 ± 0.12
ASAKSVRSGVSKSAPSK [YAR002W/NUP60]	2.96 ± 0.064
ASITGTGSNDRCIGDSD [YMR129W/POM152]	2.35 ± 0.11
ASKGRTKIDMPIKNRKN [BRN1]	2.91 ± 0.12
ASKSKKKFNMGKEFEAR [RPC53]	3.27 ± 0.073
ASKVLLKIFLYLESLFA [IRR1]	2.02 ± 0.24
ASLALAHVFVGTCNGDI [RPN1]	2.43 ± 0.077
ASLKIKNATDLQQAKLR [SMC3]	2.93 ± 0.13
ASLKKMEETEQKKIQIN [SMC3]	3.1 ± 0.13
ASNEVIAKSRYWYFLQK [RPL20A]	2.58 ± 0.063
ASRSQLEKGEIELSDGS [YJL039C/NUP192]	2.8 ± 0.07
ASVEIVFHDPDHSMILP [SMC3]	2.98 ± 0.15
ASYLTPLLEAKKLVWPL [SSN2]	2.86 ± 0.15

Same assay, conditions: ubr1∆

Sequence	protein stability index
AIDHLKAELEKQKSWVP [YIL149C/MLP2]	2.91 ± 0.051
AIKKSSMKMELLKKELL [SMC2]	2.13 ± 0.081
AILLIINLTQTYGISVV [NUT1]	1.43 ± 0.04
AILRQQQQMANNNGNPG [GAL11]	3.17 ± 0.05
AIPNSIIKRSNGQSLSP [YMR153W/NUP53]	2.69 ± 0.037
AIQKKDNKDKEGNAGGD [YOR098C/NUP1]	3.44 ± 0.11
AIQMVDPASFYLFDEID [SMC3]	2.07 ± 0.045
AISKKNKSLKYVIHGIE [LIN1]	1.84 ± 0.04
AIVFEEIKNWISDIPYV [YMR129W/POM152]	1.72 ± 0.054
AKAPSGLDQSRIPFSER [FAS1]	2.56 ± 0.047
AKFFLNVSDEQLSNWQK [ITC1]	3.17 ± 0.072
AKFRLILIESRIHRLAR [RPS13]	2.5 ± 0.15
AKIISKAPEQFIENFLT [YML103C/NUP188]	2.89 ± 0.2
AKKRRPAAKGKNLSFKR [RRP6]	2.81 ± 0.085
AKLRKELVETSEVRKAV [FAS2]	1.38 ± 0.25
AKNIISNVLDGNKNQFE [LRP1]	3.23 ± 0.049
AKSNEDKQDGTAKPAFS [YJL041W/NSP1]	2.96 ± 0.29
AKTLTYPEVVTPYNIDR [RPO21]	2.05 ± 0.074
ALDTNGTSATTETLTSK [SIR4]	1.93 ± 0.045
ALEDEERDEILTLTDSQ [BRR2]	3.12 ± 0.16
ALIFIFFAYFIGWCKED [YJL039C/NUP192]	1.88 ± 0.062
ALLRENQDSVKTYALES [RPN2]	2.94 ± 0.1
ALLRVTKSKNKTLIGLQ [POP4]	2.47 ± 0.049
ALLTKRLYPHWDHPVIA [CSN12]	1.89 ± 0.068
ALMKTLIKFVDLSRNGR [NUT1]	2.65 ± 0.15
ALPSTHKVTQKKDIKIG [SIR4]	2.77 ± 0.067
ALQILNSGIIPGNRNAD [FAS2]	2.8 ± 0.052

Sequence	protein stability index
ALREMRKSDQQDVLKGS [POP1]	3.22 ± 0.11
ALSIADDASSAELLGRV [RPC53]	3.12 ± 0.085
ALTDFERFQVMVLRKQK [RPL14A]	2.16 ± 0.065
ALVFAALEHLKNLSLLA [SRP68]	2.92 ± 0.096
ALVYSYIEASGREGIWS [RPC34]	2.52 ± 0.11
AMLNLINDNNTRPYILE [YCG1]	3.23 ± 0.19
AMSETLSKVSLLTPDIG [PRE8]	3.35 ± 0.23
AMVEKYAPDVVRSLENL [RRP42]	3.14 ± 0.038
ANCQRQLTEFWTELCQR [NNF1]	2.82 ± 0.099
ANKTNLIESLNTIRQNV [YML103C/NUP188]	1.77 ± 0.063
ANLLPARQFGYVILTTS [RPS22A]	1.11 ± 0.046
ANLMLVMLRLLLVVIFK [SRB4]	1.46 ± 0.034
ANNNMNDELVELLANKC [GRR1]	2.99 ± 0.046
ANQSATSTPPPPPAPHN [SNF5]	3.1 ± 0.032
ANVPSTATTGKRKPAKS [RPN4]	2.8 ± 0.05
APAVELHGNAKKAAEEA [FAS2]	3.3 ± 0.15
APDGSASISLPNHIPSV [SWP82]	3.3 ± 0.044
APKIHILDPSTEYCVGD [YMR129W/POM152]	2.79 ± 0.13
APKWYPSEDVAALKKTR [RPL6A]	2.53 ± 0.051
APPQTRKFQPPPGFKRK [SMB1]	3.28 ± 0.063
APSDFSENQRQIFCVFS [GRR1]	2.65 ± 0.057
APSGIRMHLAPASKQGY [SSN2]	2.36 ± 0.097
APTLSQTYINQELGFCE [SSN2]	2.92 ± 0.18
APYRKQIISNAHNKPSL [YAR002W/NUP60]	2.36 ± 0.085
AQAQAQAQAQAQAAQAA [GAL11]	3.15 ± 0.057
AQFQYTLDRNTAAETFK [RPL8A]	2.06 ± 0.049
AQGKEFGVTKARWPAKS [RPL17A]	3.35 ± 0.097

Sequence	protein stability index
AQGVAVQLKRQPAQPRE [RPL21A]	1.88 ± 0.07
AQQAQQAQQAQQAQARL [SNF2]	3.2 ± 0.045
AQQDSTNVRLYSLLLAS [ECM29]	2.43 ± 0.04
AQQKLKQNPGLMQNMMN [SRP54]	2.54 ± 0.033
AQWERSKLSQEFLYPHL [SNF12]	3.08 ± 0.062
ARDAPTKISTLAVKVHG [QCR2]	1.09 ± 0.045
ARIIAAIPNPEDVVAIS [RPS0A]	2.31 ± 0.083
ARKETYSSYIYKVLKQT [HTB1]	2.47 ± 0.037
ARKSAPSTGGVKKPHRY [HHT1]	2.03 ± 0.063
ARLDGHDFLFNTIIRDG [RPN14]	2.81 ± 0.044
ARNLIEDEDDGESEKSS [RPC53]	3.29 ± 0.11
ARRRQPTDQNNQSNLNG [SNF2]	3.24 ± 0.16
ARVTGGMKVKADRDESS [RPS14B]	3.03 ± 0.043
ARYNWICDPVHKHREAR [RPL15A]	3.22 ± 0.096
ASAKSVRSGVSKSAPSK [YAR002W/NUP60]	2.99 ± 0.056
ASITGTGSNDRCIGDSD [YMR129W/POM152]	2.88 ± 0.1
ASKGRTKIDMPIKNRKN [BRN1]	3.17 ± 0.1
ASKSKKKFNMGKEFEAR [RPC53]	3.4 ± 0.081
ASLALAHVFVGTCNGDI [RPN1]	2.58 ± 0.074
ASLKIKNATDLQQAKLR [SMC3]	3.09 ± 0.095
ASLKKMEETEQKKIQIN [SMC3]	2.23 ± 0.11
ASNEVIAKSRYWYFLQK [RPL20A]	2.72 ± 0.058
ASRSQLEKGEIELSDGS [YJL039C/NUP192]	3 ± 0.042
ASVEIVFHDPDHSMILP [SMC3]	2.65 ± 0.079
ASYLTPLLEAKKLVWPL [SSN2]	2.71 ± 0.084
